First the molecules themselves.
B1: full length wild-type GST-SNX9 (sorting nexin 9) [not stated] / clathrin heavy chain (CHC) [human (endogenous in HeLa)] (parent complex)
chain 1: MATKARVMYDFAAEPGNNELTVNEGEIITITNPDVGGGWLEGRNIKGERGLVPTDYVEILPSDGKDQFSCGNSVADQAFLDSLSASTAQASSSAASNNHQVGSGNDPWSAWSASKSGNWESSEGWGAQPEGAGAQRNTNTPNNWDTAFGHPQAYQGPATGDDDDWDEDWDGPKSSSYFKDSESADAGGAQRGNSRASSSSMKIPLNKFPGFAKPGTEQYLLAKQLAKPKEKIPIIVGDYGPMWVYPTSTFDCVVADPRKGSKMYGLKSYIEYQLTPTNTNRSVNHRYKHFDWLYERLLVKFGSAIPIPSLPDKQVTGRFEEEFIKMRMERLQAWMTRMCRHPVISESEVFQQFLNFRDEKEWKTGKRKAERDELAGVMIFSTMEPEAPDLDLVEIEQKCEAVGKFTKAMDDGVKELLTVGQEHWKRCTGPLPKEYQKIGKALQSLATVFSSSGYQGETDLNDAITEAGKTYEEIASLVAEQPKKDLHFLMECNHEYKGFLGCFPDIIGTHKGAIEKVKESDKLVATSKITLQDKQNMVKRVSIMSYALQAEMNHFHSNRIYDYNSVIRLYLEQQVQFYETIAEKLRQALSRFPVM
chain 2: MAQILPIRFQEHLQLQNLGINPANIGFSTLTMESDKFICIREKVGEQAQVVIIDMNDPSNPIRRPISADSAIMNPASKVIALKAGKTLQIFNIEMKSKMKAHTMTDDVTFWKWISLNTVALVTDNAVYHWSMEGESQPVKMFDRHSSLAGCQIINYRTDAKQKWLLLTGISAQQNRVVGAMQLYSVDRKVSQPIEGHAASFAQFKMEGNAEESTLFCFAVRGQAGGKLHIIEVGTPPTGNQPFPKKAVDVFFPPEAQNDFPVAMQISEKHDVVFLITKYGYIHLYDLETGTCIYMNRISGETIFVTAPHEATAGIIGVNRKGQVLSVCVEEENIIPYITNVLQNPDLALRMAVRNNLAGAEELFARKFNALFAQGNYSEAAKVAANAPKGILRTPDTIRRFQSVPAQPGQTSPLLQYFGILLDQGQLNKYESLELCRPVLQQGRKQLLEKWLKEDKLECSEELGDLVKSVDPTLALSVYLRANVPNKVIQCFAETGQVQKIVLYAKKVGYTPDWIFLLRNVMRISPDQGQQFAQMLVQDEEPLADITQIVDVFMEYNLIQQCTAFLLDALKNNRPSEGPLQTRLLEMNLMHAPQVADAILGNQMFTHYDRAHIAQLCEKAGLLQRALEHFTDLYDIKRAVVHTHLLNPEWLVNYFGSLSVEDSLECLRAMLSANIRQNLQICVQVASKYHEQLSTQSLIELFESFKSFEGLFYFLGSIVNFSQDPDVHFKYIQAACKTGQIKEVERICRESNCYDPERVKNFLKEAKLTDQLPLIIVCDRFDFVHDLVLYLYRNNLQKYIEIYVQKVNPSRLPVVIGGLLDVDCSEDVIKNLILVVRGQFSTDELVAEVEKRNRLKLLLPWLEARIHEGCEEPATHNALAKIYIDSNNNPERFLRENPYYDSRVVGKYCEKRDPHLACVAYERGQCDLELINVCNENSLFKSLSRYLVRRKDPELWGSVLLESNPYRRPLIDQVVQTALSETQDPEEVSVTVKAFMTADLPNELIELLEKIVLDNSVFSEHRNLQNLLILTAIKADRTRVMEYINRLDNYDAPDIANIAISNELFEEAFAIFRKFDVNTSAVQVLIEHIGNLDRAYEFAERCNEPAVWSQLAKAQLQKGMVKEAIDSYIKADDPSSYMEVVQAANTSGNWEELVKYLQMARKKARESYVETELIFALAKTNRLAELEEFINGPNNAHIQQVGDRCYDEKMYDAAKLLYNNVSNFGRLASTLVHLGEYQAAVDGARKANSTRTWKEVCFACVDGKEFRLAQMCGLHIVVHADELEELINYYQDRGYFEELITMLEAALGLERAHMGMFTELAILYSKFKPQKMREHLELFWSRVNIPKVLRAAEQAHLWAELVFLYDKYEEYDNAIITMMNHPTDAWKEGQFKDIITKVANVELYYRAIQFYLEFKPLLLNDLLMVLSPRLDHTRAVNYFSKVKQLPLVKPYLRSVQNHNNKSVNESLNNLFITEEDYQALRTSIDAYDNFDNISLAQRLEKHELIEFRRIAAYLFKGNNRWKQSVELCKKDSLYKDAMQYASESKDTELAEELLQWFLQEEKRECFGACLFTCYDLLRPDVVLETAWRHNIMDFAMPYFIQVMKEYLTKVDKLDASESLRKEEEQATETQPIVYGQPQLMLTAGPSVAVPPQAPFGYGYTAPPYGQPQPGFGYSM

We go through four variants from paper PMC3702553 (2013).

In this experiment the parent is B1. The experiment is described as follows: GST pull-down, densitometry of immunoblots; lysates from asynchronously growing HeLa cells; 3-4 independent experiments; parent: 1; read off a plot. Background: Immunoblotting shows a protein as a band on a membrane.
As to chain 1 W165S, chain 1 W169S, the ratio to parent is approximately 0.29.
Consider chain 1 W108S, for which the ratio to parent was approximately 0.44.
The value for chain 1 W165S was approximately 0.05; that for chain 1 W108S, chain 1 W111S was approximately 0.06.
